Measured values reported in paper PMC5774749, “Coiled-coil formation of the membrane-fusion K/E peptides viewed by electron paramagnetic resonance” (PLoS ONE, 2018).
*: point of attachment. MTSL = CC1(C)C=C(CS*)C(C)(C)N1[O]

B1: E-SL (peptide)
peptide: Ac-EIAALEKEIAALEKEIAALEKGYC(MTSL)-NH2
SMILES: CC[C@H](C)[C@H](NC(=O)[C@H](CCC(=O)O)NC(C)=O)C(=O)N[C@@H](C)C(=O)N[C@@H](C)C(=O)N[C@@H](CC(C)C)C(=O)N[C@@H](CCC(=O)O)C(=O)N[C@@H](CCCCN)C(=O)N[C@@H](CCC(=O)O)C(=O)N[C@H](C(=O)N[C@@H](C)C(=O)N[C@@H](C)C(=O)N[C@@H](CC(C)C)C(=O)N[C@@H](CCC(=O)O)C(=O)N[C@@H](CCCCN)C(=O)N[C@@H](CCC(=O)O)C(=O)N[C@H](C(=O)N[C@@H](C)C(=O)N[C@@H](C)C(=O)N[C@@H](CC(C)C)C(=O)N[C@@H](CCC(=O)O)C(=O)N[C@@H](CCCCN)C(=O)NCC(=O)N[C@@H](Cc1ccc(O)cc1)C(=O)N[C@@H](CSSCC1=CC(C)(C)N([O])C1(C)C)C(N)=O)[C@@H](C)CC)[C@@H](C)CC
notes: designed coiled-coil zipper peptide E; printed as Ac-(EIAALEK)3-GYC(SL)-NH2, the repeat written out three times; degree of spin labelling around 80%; also called E-peptide, spin labelled at the C-terminus; E-Cys
B2: K-SL (peptide)
peptide: Ac-KIAALKEKIAALKEKIAALKEGWC(MTSL)-NH2
SMILES: CC[C@H](C)[C@H](NC(=O)[C@H](CCCCN)NC(C)=O)C(=O)N[C@@H](C)C(=O)N[C@@H](C)C(=O)N[C@@H](CC(C)C)C(=O)N[C@@H](CCCCN)C(=O)N[C@@H](CCC(=O)O)C(=O)N[C@@H](CCCCN)C(=O)N[C@H](C(=O)N[C@@H](C)C(=O)N[C@@H](C)C(=O)N[C@@H](CC(C)C)C(=O)N[C@@H](CCCCN)C(=O)N[C@@H](CCC(=O)O)C(=O)N[C@@H](CCCCN)C(=O)N[C@H](C(=O)N[C@@H](C)C(=O)N[C@@H](C)C(=O)N[C@@H](CC(C)C)C(=O)N[C@@H](CCCCN)C(=O)N[C@@H](CCC(=O)O)C(=O)NCC(=O)N[C@@H](Cc1c[nH]c2ccccc12)C(=O)N[C@@H](CSSCC1=CC(C)(C)N([O])C1(C)C)C(N)=O)[C@@H](C)CC)[C@@H](C)CC
notes: designed coiled-coil zipper peptide K; printed as Ac-(KIAALKE)3-GWC(SL)-NH2, the repeat written out three times; degree of spin labelling around 70%; also called K-peptide, spin labelled at the C-terminus
B3: SL-K (peptide)
peptide: Ac-C(MTSL)KIAALKEKIAALKEKIAALKEGW-NH2
SMILES: CC[C@H](C)[C@H](NC(=O)[C@H](CCCCN)NC(=O)[C@H](CSSCC1=CC(C)(C)N([O])C1(C)C)NC(C)=O)C(=O)N[C@@H](C)C(=O)N[C@@H](C)C(=O)N[C@@H](CC(C)C)C(=O)N[C@@H](CCCCN)C(=O)N[C@@H](CCC(=O)O)C(=O)N[C@@H](CCCCN)C(=O)N[C@H](C(=O)N[C@@H](C)C(=O)N[C@@H](C)C(=O)N[C@@H](CC(C)C)C(=O)N[C@@H](CCCCN)C(=O)N[C@@H](CCC(=O)O)C(=O)N[C@@H](CCCCN)C(=O)N[C@H](C(=O)N[C@@H](C)C(=O)N[C@@H](C)C(=O)N[C@@H](CC(C)C)C(=O)N[C@@H](CCCCN)C(=O)N[C@@H](CCC(=O)O)C(=O)NCC(=O)N[C@@H](Cc1c[nH]c2ccccc12)C(N)=O)[C@@H](C)CC)[C@@H](C)CC
notes: designed coiled-coil zipper peptide K; printed as Ac-C(SL)-(KIAALKE)3-GW-NH2, the repeat written out three times; degree of spin labelling around 80%; also called K-peptide, spin labelled at the N-terminus; Cys-K

Assays:
SL-K [1] = target: B3; test: DEER (double electron-electron resonance); frozen solution, 40 K, 9.7 GHz; PBS with 20% (wt) glycerol; total peptide 0.3 mM, mixtures equimolar; same samples as for cw-EPR; Tikhonov regularization; conditions: both partners purified
K-SL [2] = target: B2; test: continuous-wave EPR of frozen solution; 120 K, 9.7 GHz; PBS with 20% (wt) glycerol; total peptide 0.3 mM, mixtures equimolar; line broadening against free MTSL, distances from simulation of the spectra; conditions: both partners purified
[3] = target: the molecule itself; test: as above
[4] = target: the molecule itself; test: DEER (double electron-electron resonance); frozen solution, 40 K, 9.7 GHz; PBS with 20% (wt) glycerol; total peptide 0.3 mM, mixtures equimolar; same samples as for cw-EPR; Tikhonov regularization
K-SL [5] = target: B2; test: continuous-wave EPR at room temperature; solution; rotation-correlation time of the spin-labelled peptide with and without the unlabelled partner; described in S1 Text; conditions: both partners purified
SL-K [6] = target: B3; test: as above; conditions: both partners purified
E-SL = target: B1; test: as above; conditions: both partners purified

Does B1 bind (SL-K [1])?
Result: binds

Does B1 bind (K-SL [2])?
Result: binds

Does B2 bind [3]?
Result: binds

Does B3 bind [4]?
Result: binds

B4: E (peptide)
peptide: Ac-EIAALEKEIAALEKEIAALEKGY-NH2
notes: designed coiled-coil zipper peptide E; printed as Ac-(EIAALEK)3-GY-NH2, the repeat written out three times; unlabelled peptide added to K-SL or SL-K in the room-temperature cw-EPR; the details of these samples are in S1 Text; also called E-peptide; peptide E; source: synthetic peptide
Which results are given for B4?
binding result (K-SL [5]): binds; binding result (SL-K [6]): binds

B5: K (peptide)
peptide: Ac-KIAALKEKIAALKEKIAALKEGW-NH2
notes: designed coiled-coil zipper peptide K; printed as Ac-(KIAALKE)3-GW-NH2, the repeat written out three times; unlabelled peptide added to E-SL in the room-temperature cw-EPR; the details of these samples are in S1 Text; also called K-peptide; peptide K; source: synthetic peptide
Does B5 bind (E-SL)?
Result: binds
